pKd, pKi: −log10 of the molar value. Where two headings read alike, the source gives them in different places.
How the values were obtained:
tUI = tUI (UniProt Q9UMX0); experiment: other fluorescence titration
Atto532-tUI [1] = target: Atto532-tUI (UniProt Q9UMX0); experiment: other fluorescence titration
Atto532-tUI [2] = target: Atto532-tUI (UniProt Q9UMX0); experiment: stopped-flow fluorescence kinetics
ubiquitin (Homo sapiens) [3] = target: ubiquitin (Homo sapiens) (UniProt P0CG48); conditions: cited from earlier work
ubiquitin (Homo sapiens) [4] = target: ubiquitin (Homo sapiens) (UniProt P0CG48); conditions: cited from earlier work; remark: listed apart in the source

Rabex5 RUZ RUZ, sequence (Q9UJ41 13-47): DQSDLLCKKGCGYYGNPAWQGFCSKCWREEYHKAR
Nedd8, sequence (Q15843 1-76): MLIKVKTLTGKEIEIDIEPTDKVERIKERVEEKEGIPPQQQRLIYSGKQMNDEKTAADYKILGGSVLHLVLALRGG
IsoT BUZ BUZ, sequence (P45974 173-289): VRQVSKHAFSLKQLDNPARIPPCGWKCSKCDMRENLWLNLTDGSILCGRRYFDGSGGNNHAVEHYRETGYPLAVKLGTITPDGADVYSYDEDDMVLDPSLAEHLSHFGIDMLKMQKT

“ubiquitin (free Ub) (from UniProt P0CG48 1-76) (natural protein)” showed a pKi (tUI) of 9.71, a pKd (Atto532-tUI [1]) of 10.18 and a pKd (Atto532-tUI [2]) of 10.25.
For “Nedd8 (from UniProt Q15843 1-76) (natural protein)”, the fold higher affinity for Ub than Nedd8 (Atto532-tUI [1]) was 120 fold.
For IsoT BUZ BUZ (from UniProt P45974), the pKd (ubiquitin (Homo sapiens) [3]) is listed as 5.52.
For Rabex5 RUZ RUZ (from UniProt Q9UJ41), the pKd (ubiquitin (Homo sapiens) [4]) is listed as 4.92.

From publication PMC6669086
